Assay results from article PMC3186216 (Biochemistry, 2010).

Biological target: T1, calnexin (dog (endogenous in MDCK), UniProt P24643 21-593)
T1 sequence (looked up): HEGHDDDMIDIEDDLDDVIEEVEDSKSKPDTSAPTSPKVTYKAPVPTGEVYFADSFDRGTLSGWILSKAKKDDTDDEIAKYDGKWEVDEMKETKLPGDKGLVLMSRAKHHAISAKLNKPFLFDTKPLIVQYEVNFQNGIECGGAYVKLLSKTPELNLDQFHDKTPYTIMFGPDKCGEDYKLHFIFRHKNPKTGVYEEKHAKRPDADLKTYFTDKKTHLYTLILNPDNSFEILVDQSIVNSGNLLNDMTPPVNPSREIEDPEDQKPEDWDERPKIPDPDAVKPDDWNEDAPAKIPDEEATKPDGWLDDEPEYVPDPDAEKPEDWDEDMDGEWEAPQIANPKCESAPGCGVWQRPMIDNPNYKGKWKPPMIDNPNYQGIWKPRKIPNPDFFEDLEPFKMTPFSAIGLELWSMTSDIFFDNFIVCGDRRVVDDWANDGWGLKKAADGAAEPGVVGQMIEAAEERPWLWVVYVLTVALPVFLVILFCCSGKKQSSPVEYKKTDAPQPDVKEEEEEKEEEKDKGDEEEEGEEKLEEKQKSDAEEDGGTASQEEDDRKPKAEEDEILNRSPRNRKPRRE
Assay: co-IP

B1: YFP-linked Na,K-ATPase β2 subunit (human), wild type (natural protein, UniProt P14415 1-290, looked up)
chain: MVIQKEKKSCGQVVEEWKEFVWNPRTHQFMGRTGTSWAFILLFYLVFYGFLTAMFTLTMWVMLQTVSDHTPKYQDRLATPGLMIRPKTENLDVIVNVSDTESWDQHVQKLNKFLEPYNDSIQAQKNDVCRPGRYYEQPDNGVLNYPKRACQFNRTQLGNCSGIGDSTHYGYSTGQPCVFIKMNRVINFYAGANQSMNVTCAGKRDEDAENLGNFVMFPANGNIDLMYFPYYGKKFHVNYTQPLVAVKFLNVTPNVEVNVECRINAANIATDDERDKFAGRVAFKLRINKT
modifications: N-glycans at all eight N-glycosylation sites; only the high-mannose form coprecipitated with calnexin
normalised amount coprecipitated, fold of that of YFP-β1: ~7 fold
